US20230210968A1, “RIBONUCLEOPROTEIN APPROACH TO BOOST THE STING SIGNALING FOR CANCER IMMUNOTHERAPY” (MASSACHUSETTS INSTITUTE OF TECHNOLOGY, priority 2020, published 2023)

What was measured:
[1] = system: STINGΔTM-induced STING signaling in HEK293T cells; assay: Interferon activity in HEK293T cells pretreated with chemical inhibitors, then cGAMP-STINGΔTM; type: cell-based, human; conditions: increasing inhibitor concentrations before cGAMP-STINGΔTM treatment
Experimental: For the HEK293T cells, a reporter derivative from this cell line was first generated by transfecting pGL4.45[luc2P/ISRE/Hygro] (Promega company) and stably selected in 200 μg/ml hydromycin. The pGL4.45[luc2P/ISRE/Hygro] vector contains five copies of an interferon-stimulated response element (ISRE) that drives transcription of the luciferase reporter gene luc2P (Photinus pyralis). luc2p is a synthetically-derived luciferase sequence with humanized codon optimization that is designed for high expression and reduced anomalous transcription. The luc2P gene contains hPEST, a protein destabilization sequence, which allows luc2P protein levels to respond more quickly than those of […] to induction of transcription. […] Commercial transfection reagent TranslT-X2TM was used to help transfection (2 μg pDNA mixed with 4 μL TranslT-X2TM in 250 μL Opti-MEM media for each 6-well). […] Transfected cells were also harvested for western blotting.

[2] = system: MC38 cells; assay: Therapeutic treatment study, MC38 colon cancer model; type: in vivo, C57BL/6 mice; conditions: intratumoral, 100 μg protein and/or 2.5 μg cGAMP, days 7, 14, 21, 28, 35
Experimental: A therapeutic treatment study with an MC38 colon cancer model was then performed. […] The tumor size and survival were monitored on a schedule similar to that of the prophylactic study.

[3] = target: the molecule itself; assay: FPLC size exclusion, cGAMP titration; self-association
[4] = Transmission electron microscopy particle size; conditions: in PBS
[5] = system: intracellular trafficking of the tetrameric complex (EEA1, TBK1, Golgi apparatus, LAMP1); assay: Immunocytochemistry / confocal microscopy of intracellular trafficking; type: cell-based
Experimental: Immunocytochemistry: Transfection and immune staining were performed in Millicell® EZ chamber slides (Millipore Sigma, Temecula, Calif., USA). […] Cells were imaged with an Inverted Olympus IX83 microscope equipped with a Hamamatsu ImagEM high sensitivity camera at the Swanson Biotechnology Center (MIT).

[6] = target: the molecule itself; assay: FPLC size exclusion with cGAMP; self-association
[7] = tetrameric complex, 6 h post-transfection

In the case of `O=C(NCCCNc1nc(Nc2cccc(CN3CCOCC3)c2)ncc1C1CC1)C1CCC1` [MRT, MRT67307], the “interferon activity after inhibitor pretreatment” value [1] is reported as “decrease with increasing concentrations”.

In the case of `CO/C1=C\C(C)=C\[C@@H](C)[C@@H](O)[C@@H](C)C/C(C)=C/C=C/[C@H](OC)[C@@H]([C@@H](C)[C@@H](O)[C@H](C)[C@@]2(O)C[C@@H](O)[C@H](C)[C@@H](C(C)C)O2)OC1=O` [BafA1, bafilomycin A1], the “interferon activity after inhibitor pretreatment” value [1] is reported as “decreasing activity observed with increasing concentrations”.

For `C[C@H]1CCC/C=C/[C@@H]2C[C@H](O)C[C@H]2[C@H](O)/C=C/C(=O)O1` [BFA, brefeldin A], the “interferon activity after inhibitor pretreatment” value [1] was “insignificant effect”.

For `Nc1nc2c(ncn2[C@@H]2O[C@@H]3COP(=O)(O)O[C@H]4[C@@H](O)[C@H](n5cnc6c(N)ncnc65)O[C@@H]4COP(=O)(O)O[C@@H]2[C@@H]3O)c(=O)[nH]1` [cGAMP, 2′3′ cyclic guanosine monophosphate-adenosine monophosphate], the tumor burden [2] was “significantly reduced tumor burden”.

With `CCN(CC)CCCC(C)Nc1ccnc2cc(Cl)ccc12` (stereo not shown) [CQ, chloroquine] the “interferon activity after inhibitor pretreatment” value [1] was “increased interferon activity”.

B1: mSTINGΔTM (mouse STING amino acids 138-378) (other)
chain: LTPAEVSAVCEEKKLNVAHGLAWSYYIGYLRLILPGLQARIRMFNQLHNNMLSGAGSRRLYILFPLDCGVPDNLSVVDPNIRFRDMLPQQNIDRAGIKNRVYSNSVYEILENGQPAGVCILEYATPLQTLFAMSQDAKAGFSREDRLEQAKLFCRTLEEILEDVPESRNNCRLIVYQEPTDGNSFSLSQEVLRHIRQEEKEEVTMNAPMTSVAPPPSVLSQEPRLLISGMDQPLPLRTDLI
notes: Runs as a dimer (~60 kDa) without cGAMP and as a tetramer (~120 kDa) with cGAMP; Entries with this molecule as both partners are self-association; also called mouse STINGΔTM; recombinant transmembrane-deficient STING
With B1 the binding result [3] was “binds”, the “particle diameter (TEM)” value [4] was roughly 14 nm and the “co-localization with LAMP1” value ([5]; 24 h post-transfection) was “co-localization with Lysosomal Associated Membrane Protein 1 (LAMP1) at 24 h post-transfection”. For the same molecule, the “co-localization with Early Endosome Antigen 1 (EEA1)” value [5, 7] was “limited co-localization”, the “co-localization with TBK1” value [5, 7] was “co-localization of TBK1 with STINGΔTM in punctate structures” and the “co-localization with the Golgi apparatus” value ([5]; with or without the addition of BFA) was “no significant evidence of STINGΔTM co-localization with the Golgi apparatus”.

B2: mouse STINGΔTM Q272A/A276Q (other)
chain: LTPAEVSAVCEEKKLNVAHGLAWSYYIGYLRLILPGLQARIRMFNQLHNNMLSGAGSRRLYILFPLDCGVPDNLSVVDPNIRFRDMLPQQNIDRAGIKNRVYSNSVYEILENGQPAGVCILEYATPLQTLFAMSADAKQGFSREDRLEQAKLFCRTLEEILEDVPESRNNCRLIVYQEPTDGNSFSLSQEVLRHIRQEEKEEVTMNAPMTSVAPPPSVLSQEPRLLISGMDQPLPLRTDLI
notes: Expressed His-tagged; also called Q272A/A276Q mutant; functional double mutant at the tetramer interface
B2: binds [6].

B3: mSTINGΔTM R237A-Y239A (other)
chain: LTPAEVSAVCEEKKLNVAHGLAWSYYIGYLRLILPGLQARIRMFNQLHNNMLSGAGSRRLYILFPLDCGVPDNLSVVDPNIRFRDMLPQQNIDRAGIKNAVASNSVYEILENGQPAGVCILEYATPLQTLFAMSQDAKAGFSREDRLEQAKLFCRTLEEILEDVPESRNNCRLIVYQEPTDGNSFSLSQEVLRHIRQEEKEEVTMNAPMTSVAPPPSVLSQEPRLLISGMDQPLPLRTDLI
notes: Expressed His-tagged; also called STINGΔTM R238A/Y240A; R237A/Y239A mutant STINGΔTM
B3: binds [3].
